Values of other authors, collected in US20250197888A1, “NOVEL RECOMBINANT VECTOR AND USE THEREOF” (CELL & BRAIN CO., LTD., priority 2022, published 2025).

Settings: A168H mutant; Balzarini et al., 2006

## mutant HSV-TK: HSV thymidine kinase in which alanine at position 168 is substituted with histidine
  kinase activity relative to wild-type HSV-TK: about 4 times
